The values below are quoted from earlier work in paper PMC6814268.

A word on the Kd: it is a measure of binding affinity in units of concentration.

Data set [1] deals with CEACAM5 IgV (Homo sapiens) (UniProt P06731).
For data set [2], the target named is CEACAM1 IgV (Homo sapiens) (UniProt P13688).

As to CEACAM5 IgV (from UniProt P06731), in data set [1], the dissociation constant (Kd) was 800 nM.

CEACAM1 IgV (from UniProt P13688): the Kd in data set [2] is 450 nM.
